From the Immune Epitope Database (IEDB)

What follows are sequences tested against HLA-A*02:01 (assay: IEDB peptide-MHC binding, purified MHC/direct/fluorescence; filed as Kd, often an IC50 or EC50 that approximates it; ≥ and ≤ were set here for values at or beyond the usual limits of such assays). Conditions: source organism: Influenza A virus (A/Puerto Rico/8/1934(H1N1)).

Point of comparison: FLAMITYMT, Kd 253 nM. Against it:
- FLARSALIL — 280-fold lower, 0.9 nM
- FLKDVMESM — 5-fold lower, 51 nM
- FLLMDALKLSI — 11-fold lower, 24 nM
- FMQALHLLL — 19-fold lower, 13 nM
- GMFNMLSTV — 11-fold lower, 23 nM
- GMFNMLSTVL — 1.5-fold higher, 384 nM
- IILKANFSV — 5.6-fold lower, 45 nM
- LLQNSQVYS — 5.4-fold higher, 1370 nM
- MMGMFNMLSTV — 5-fold lower, 51 nM
- MMMGMFNMLST — 7-fold lower, 36 nM
- RMGAVTTEV — 1.9-fold lower, 133 nM
- SLVGIDPFRL — 3.6-fold lower, 70 nM
- VLMEWLKTRPI — 2.5-fold lower, 101 nM
- WMMAMKYPI — 7-fold lower, 36 nM
- WMMAMKYPITA — 3.4-fold lower, 75 nM
- YLIRALTLNTM — 5.5-fold lower, 46 nM
